# Test results from the Human Domainome abundance scans (Beltran et al. 2025).
# ± gives the uncertainty stated by the source.
# B1: Kinesin-like protein KIF16B, residues 1213 to 1273; numbered along this chain, Q96L93 (parent)
# chain: ETWTVFRRYSRFREMHKTLKLKYAELAALEFPPKKLFGNKDERVIAERRSHLEKYLRDFFS
# Variants of: B1
# Assay: abundance fitness (aPCA) (normalised: wild type 0, dead -1); higher = more abundant; growth selection in yeast, the domain comes from the species named
# Settings: Homo sapiens
row,Variant,abundance fitness
1,ETWTVFRRYSRFREMHKTLKLKYAELAALEFPPKKLFGNKDERVIAEPRSHLEKYLRDFFS,0.113 ± 0.11
2,ETWTVFRRYSRFREMHKTLKLKYAELAALEFPPKKLFGNKDERVIAEGRSHLEKYLRDFFS,0.108 ± 0.047
3,ETWTVFRRYSRFREMHKTLKLKYAELAALEFPPKKLFGNKDERVIAEQRSHLEKYLRDFFS,-0.291 ± 0.087
4,ETWTVFRRYSRFREMHKTLKLKYAELAALEFPPKKLFGNKDERVIAECRSHLEKYLRDFFS,-0.148 ± 0.13
5,ETWTVFRRYSRFREMHKTLKLKYAELAALEFPPKKLFGNKDERVIAEERSHLEKYLRDFFS,-0.374 ± 0.082
6,ETWTVFRRYSRFREMHKTLKLKYAELAALEFPPKKLFGNKDERVIAEKRSHLEKYLRDFFS,-0.061 ± 0.11
7,ETWTVFRRYSRFREMHKTLKLKYAELAALEFPPKKLFGNKDERVIAEYRSHLEKYLRDFFS,-0.266 ± 0.16
8,ETWTVFRRYSRFREMHKTLKLKYAELAALEFPPKKLFGNKDERVIAEMRSHLEKYLRDFFS,0.159 ± 0.083
9,ETWTVFRRYSRFREMHKTLKLKYAELAALEFPPKKLFGNKDERVIAETRSHLEKYLRDFFS,-0.363 ± 0.095
10,ETWTVFRRYSRFREMHKTLKLKYAELAALEFPPKKLFGNKDERVIAEFRSHLEKYLRDFFS,0.087 ± 0.063
11,ETWTVFRRYSRFREMHKTLKLKYAELAALEFPPKKLFGNKDERVIAEVRSHLEKYLRDFFS,-0.05 ± 0.064
12,ETWTVFRRYSRFREMHKTLKLKYAELAALEFPPKKLFGNKDERVIAEIRSHLEKYLRDFFS,0.123 ± 0.16
13,ETWTVFRRYSRFREMHKTLKLKYAELAALEFPPKKLFGNKDERVIAESRSHLEKYLRDFFS,-0.018 ± 0.056
14,ETWTVFRRYSRFREMHKTLKLKYAELAALEFPPKKLFGNKDERVIAEDRSHLEKYLRDFFS,-0.186 ± 0.24
15,ETWTVFRRYSRFREMHKTLKLKYAELAALEFPPKKLFGNKDERVIAEWRSHLEKYLRDFFS,0.275 ± 0.072
16,ETWTVFRRYSRFREMHKTLKLKYAELAALEFPPKKLFGNKDERVIAERRSELEKYLRDFFS,-0.379 ± 0.083
17,ETWTVFRRYSRFREMHKTLKLKYAELAALEFPPKKLFGNKDERVIAERRSQLEKYLRDFFS,0.002 ± 0.19
18,ETWTVFRRYSRFREMHKTLKLKYAELAALEFPPKKLFGNKDERVIAERRSRLEKYLRDFFS,0.194 ± 0.071
19,ETWTVFRRYSRFREMHKTLKLKYAELAALEFPPKKLFGNKDERVIAERRSSLEKYLRDFFS,-0.047 ± 0.089
20,ETWTVFRRYSRFREMHKTLKLKYAELAALEFPPKKLFGNKDERVIAERRSDLEKYLRDFFS,-0.778 ± 0.22
21,ETWTVFRRYSRFREMHKTLKLKYAELAALEFPPKKLFGNKDERVIAERRSCLEKYLRDFFS,-0.359 ± 0.22
22,ETWTVFRRYSRFREMHKTLKLKYAELAALEFPPKKLFGNKDERVIAERRSGLEKYLRDFFS,0.248 ± 0.046

row,Variant,abundance fitness
1,ETWTVFRRYSRFREMHKTLKLKYAELAALEFPPKKLFGNKDERVIAERRSILEKYLRDFFS,-0.294 ± 0.26
2,ETWTVFRRYSRFREMHKTLKLKYAELAALEFPPKKLFGNKDERVIAERRSNLEKYLRDFFS,-0.436 ± 0.38
3,ETWTVFRRYSRFREMHKTLKLKYAELAALEFPPKKLFGNKDERVIAERRSMLEKYLRDFFS,-0.368 ± 0.17
4,ETWTVFRRYSRFREMHKTLKLKYAELAALEFPPKKLFGNKDERVIAERRSWLEKYLRDFFS,-0.069 ± 0.13
5,ETWTVFRRYSRFREMHKTLKLKYAELAALEFPPKKLFGNKDERVIAERRSPLEKYLRDFFS,-0.164 ± 0.22
6,ETWTVFRRYSRFREMHKTLKLKYAELAALEFPPKKLFGNKDERVIAERRSLLEKYLRDFFS,-0.098 ± 0.081
7,ETWTVFRRYSRFREMHKTLKLKYAELAALEFPPKKLFGNKDERVIAERRSKLEKYLRDFFS,0.376 ± 0.085
8,ETWTVFRRYSRFREMHKTLKLKYAELAALEFPPKKLFGNKDERVIAERRSYLEKYLRDFFS,-0.235 ± 0.11
9,ETWTVFRRYSRFREMHKTLKLKYAELAALEFPPKKLFGNKDERVIAERRSALEKYLRDFFS,0.043 ± 0.07
10,ETWTVFRRYSRFREMHKTLKLKYAELAALEFPPKKLFGNKDERVIAERLSHLEKYLRDFFS,0.279 ± 0.073
11,ETWTVFRRYSRFREMHKTLKLKYAELAALEFPPKKLFGNKDERVIAERASHLEKYLRDFFS,-0.166 ± 0.084
12,ETWTVFRRYSRFREMHKTLKLKYAELAALEFPPKKLFGNKDERVIAERPSHLEKYLRDFFS,-0.273 ± 0.13
13,ETWTVFRRYSRFREMHKTLKLKYAELAALEFPPKKLFGNKDERVIAERISHLEKYLRDFFS,0.367 ± 0.18
14,ETWTVFRRYSRFREMHKTLKLKYAELAALEFPPKKLFGNKDERVIAERVSHLEKYLRDFFS,-0.41 ± 0.11
15,ETWTVFRRYSRFREMHKTLKLKYAELAALEFPPKKLFGNKDERVIAERYSHLEKYLRDFFS,-0.68 ± 0.29
16,ETWTVFRRYSRFREMHKTLKLKYAELAALEFPPKKLFGNKDERVIAERMSHLEKYLRDFFS,-0.477 ± 0.14
17,ETWTVFRRYSRFREMHKTLKLKYAELAALEFPPKKLFGNKDERVIAERSSHLEKYLRDFFS,-0.145 ± 0.058
18,ETWTVFRRYSRFREMHKTLKLKYAELAALEFPPKKLFGNKDERVIAERGSHLEKYLRDFFS,-0.01 ± 0.052
19,ETWTVFRRYSRFREMHKTLKLKYAELAALEFPPKKLFGNKDERVIAERQSHLEKYLRDFFS,-0.201 ± 0.14
20,ETWTVFRRYSRFREMHKTLKLKYAELAALEFPPKKLFGNKDERVIAERTSHLEKYLRDFFS,-0.286 ± 0.15
21,ETWTVFRRYSRFREMHKTLKLKYAELAALEFPPKKLFGNKDERVIAERKSHLEKYLRDFFS,0.504 ± 0.21
